Assay [1] addresses T1, CD73-ND-his (human, UniProt P21589 27-317).
T1 construct: Biotinylated and captured on streptavidin in the ELISA
T1 sequence: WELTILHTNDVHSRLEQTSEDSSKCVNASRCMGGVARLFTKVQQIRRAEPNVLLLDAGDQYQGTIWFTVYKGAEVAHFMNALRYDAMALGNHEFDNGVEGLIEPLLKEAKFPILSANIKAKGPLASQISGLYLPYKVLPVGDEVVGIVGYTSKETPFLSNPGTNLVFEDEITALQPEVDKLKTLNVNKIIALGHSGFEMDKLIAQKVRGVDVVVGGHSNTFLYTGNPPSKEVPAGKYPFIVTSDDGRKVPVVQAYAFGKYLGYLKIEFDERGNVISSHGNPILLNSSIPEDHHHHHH
Nature of the assay: ELISA as in Example 3, antigen CD73-ND-his, antibody titrated, absorbance 450 nm. Background: ELISA stands for enzyme-linked immunosorbent assay.

In a further assay the target is T2, CD73-ND-N187A (human, UniProt P21589 27-317).
T2 construct: Alanine mutant of CD73-ND
T2 sequence: T1 sequence with N187A
The experiment in a line: ELISA, high plateau value (OD 450 nm). As to the method:
(§1) The ELISA plates were coated with SA protein diluted to 1.5 μg/mL in coating buffer (50 mM carbonate coating buffer, pH 9.6) and incubated overnight at 4° C. The supernatant was discarded, and the plates were washed three times with PBST. Then, 5% skimmed milk powder prepared with PBS was added for blocking and the plates were incubated for 2 h at 37° C. After washing the plates once with PBST, CD73-biotin protein (prepared by biotinylating CD73-His protein according to the EZ-Link NHS-Biotin Reagent instructions) was diluted to 0.5 μg/mL and added at 100 μL/well for incubation at room temperature for 1 h. The plates were washed three times with PBST, and the prepared murine-derived monoclonal antibodies against human CD73 were serially diluted with 1% BSA buffer prepared with PBST and added to the ELISA plates at 100 μl/well. The plates were incubated at 37° C. for 1 h. After washing the plates three times with PBST, HRP-labeled goat anti-mouse IgG secondary antibody was added and the plates were incubated for 30 min at 37° C. After washing the plates three times with PBST, the residual droplets were patted dry on absorbent paper as much as possible. Then, 100 μl of TMB color developing solution was added to each well, and the plates were incubated in the dark at room temperature for 5 min for color development. Subsequently, 50 μl of 2M H₂SO₄ stop solution was added to each well to terminate the substrate reaction. The OD values were read at 450 nm using a multimode microplate reader to analyze the binding ability of the tested antibodies to the target antigen human CD73-His.
(§2) Referring to the experimental method in Example 3, the affinity of 48A11-HuV33 for various mutant proteins of CD73-ND was determined. The SA protein was diluted to 1 μg/mL for coating the ELISA plates, and the biotinylated CD73 protein (CD73-biotin) was used at a concentration of 0.1 μg/mL.

A further assay concerns the target T3, CD73-ND-V140A (human, UniProt P21589 27-317).
T3 construct: Alanine mutant of CD73-ND
T3 sequence: T1 sequence with V140A
The experiment in a line: ELISA; decline multiple of Top against CD73-ND. As to the method:
as §1, §2

Another assay addresses T4, CD73-ND-D142A (human, UniProt P21589 27-317).
T4 construct: Alanine mutant of CD73-ND
T4 sequence: T1 sequence with D142A
The experiment in a line: ELISA; decline multiple of Top against CD73-ND. As to the method:
as §1, §2

Another assay addresses T5, CD73-ND-P139A (human, UniProt P21589 27-317).
T5 construct: Alanine mutant of CD73-ND
T5 sequence: T1 sequence with P139A
Nature of the assay: ELISA; decline multiple of Top against CD73-ND. The method, then:
as §1, §2

The target of a further assay is T6, CD73-ND-L184A (human, UniProt P21589 27-317).
T6 construct: Alanine mutant of CD73-ND
T6 sequence: T1 sequence with L184A
The experiment in a line: ELISA; decline multiple of Top against CD73-ND. As to the method:
as §1, §2

The target in assay [2] is T1, CD73-ND-his. Nature of the assay: ELISA; decline multiple of Top against CD73-ND. The method, then: as §1, §2

Substitutions are numbered along the chain they refer to.

B1: 56B10-HuV31 (antibody, human IgG4, V domains shown)
VH: QVQLQQSGAEVKKPGASVKVSCKASGYTFTRYYIYWVRQRPGQGLEWIGWIYPGNFNTKYNEKFKGRATLTADTSASTAYMELSSLTSEDTAVYYCARDVYDYAGFAYWGQGTLVTVSS
VL: DIQLTQSPSFLSASVGDRVTITCKASQGVATAVAWYQQKPGQSPKLLIYWASTRHTGVPDRFSGSGSGTEFTLTISSLQPEDFATYYCQQYSSYPWTFGQGTKVEIK
notes: Humanized
Usually EC50 (read off the curve) stands for the midpoint of the concentration-response curve. A low value points to higher potency in that assay. With B1, the “EC50 (read off the curve)” value in the assay with CD73-ND-his [1] is around 0.08 nM.

B2: 48A11-HuV33 (antibody, human IgG4, V domains shown)
VH: QVQLVQSGAEVKKPGASVKVSCKASGYTFTSYWMHWVRQAPGQGLEWIGEINPSIGRTNYNEKFKSRVTLTRDTSTSTAYMELSSLRSEDTAVYYCARRVYGTMDYWGQGTLVTVSS
VL: DIQMTQSPSSLSASVGDRVTITCKASQDINSYLSWFQQKPGKSPKLLIYRANIWVDGVPSRFSGSGSGQDYTFTISSLQPEDIATYYCLQYDELYTFGQGTKVEIK
notes: Humanized
As for B2, the Top with CD73-ND-N187A stood at 1.77. Further, the “Ratio(Top)” value in the assay with CD73-ND-V140A worked out at 1 fold; in the assay with CD73-ND-D142A, 1.1 fold; in the assay with CD73-ND-P139A it was 2.3 fold; with CD73-ND-L184A it was 1.2 fold; in the assay with CD73-ND-his [2], 1 fold.
